Test results as given in PMC12948236.

B1: DNA origami with four SA aptamers (20-SAA1) (mixed)
DNA: TGAATCTAACGGTGCGTATCTTTTTCTGTGAGACGACGCACCGTCGCAGGTTTTGTCTCACAGTTTTGTACCTCGGAGACCAAGTAG
modifications: 3'-C3-S-S-C3 on edge staples (gold samples); none on aptamer strand
B2: DNA origami with TBA15 only (20-TBA15) (mixed)
DNA: CATCTGACCTCTGTGCTGCTTTTTGGTTGGTGTGGTTGGTTTTTTCACGGTAGCACGCATAGG
modifications: 3'-C3-S-S-C3 on edge staples; none on aptamer strand

How the values were obtained:
thrombin [1] = biological target: T1, thrombin (UniProt P00734;P00734 328-363;364-622); assay: AFM imaging; 5 nM origami, 100 nM thrombin; empty:filled cavities 25:0; Na+ samples: 140 mM NaCl, 40 mM Tris-acetic acid, 1 mM EDTA, 12.5 mM MgCl2, 5 mM KCl; specificity tests 5 nM origami, 100 nM protein; imaging buffer, pH and tem
thrombin [2] = biological target: T1, thrombin; assay: AFM imaging / C-AFM; monovalent anchoring; Na+ samples: 140 mM NaCl, 40 mM Tris-acetic acid, 1 mM EDTA, 12.5 mM MgCl2, 5 mM KCl; specificity tests 5 nM origami, 100 nM protein; imaging buffer, pH and tem

| Binder | binding result (thrombin [1]) | binding result (thrombin [2]) |
| --- | --- | --- |
| B1 | no binding | – |
| B2 | – | binds |
